# Patent publication US20140072613A1 (published 2014)
# T1: MKK6(h) (human, UniProt P52564 1-334)
# T1 sequence (looked up): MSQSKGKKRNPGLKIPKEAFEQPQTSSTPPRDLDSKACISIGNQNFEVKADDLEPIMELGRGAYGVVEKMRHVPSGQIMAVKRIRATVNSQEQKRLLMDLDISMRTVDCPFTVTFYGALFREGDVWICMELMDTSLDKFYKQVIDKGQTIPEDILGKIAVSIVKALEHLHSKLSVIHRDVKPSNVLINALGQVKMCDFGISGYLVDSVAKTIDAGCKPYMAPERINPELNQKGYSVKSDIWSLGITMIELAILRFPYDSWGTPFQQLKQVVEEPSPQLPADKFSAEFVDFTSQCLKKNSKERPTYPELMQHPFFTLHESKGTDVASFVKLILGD
# T2: BrSK2(h) (human, UniProt Q8IWQ3 1-736, limits assumed)
# T2 sequence (looked up): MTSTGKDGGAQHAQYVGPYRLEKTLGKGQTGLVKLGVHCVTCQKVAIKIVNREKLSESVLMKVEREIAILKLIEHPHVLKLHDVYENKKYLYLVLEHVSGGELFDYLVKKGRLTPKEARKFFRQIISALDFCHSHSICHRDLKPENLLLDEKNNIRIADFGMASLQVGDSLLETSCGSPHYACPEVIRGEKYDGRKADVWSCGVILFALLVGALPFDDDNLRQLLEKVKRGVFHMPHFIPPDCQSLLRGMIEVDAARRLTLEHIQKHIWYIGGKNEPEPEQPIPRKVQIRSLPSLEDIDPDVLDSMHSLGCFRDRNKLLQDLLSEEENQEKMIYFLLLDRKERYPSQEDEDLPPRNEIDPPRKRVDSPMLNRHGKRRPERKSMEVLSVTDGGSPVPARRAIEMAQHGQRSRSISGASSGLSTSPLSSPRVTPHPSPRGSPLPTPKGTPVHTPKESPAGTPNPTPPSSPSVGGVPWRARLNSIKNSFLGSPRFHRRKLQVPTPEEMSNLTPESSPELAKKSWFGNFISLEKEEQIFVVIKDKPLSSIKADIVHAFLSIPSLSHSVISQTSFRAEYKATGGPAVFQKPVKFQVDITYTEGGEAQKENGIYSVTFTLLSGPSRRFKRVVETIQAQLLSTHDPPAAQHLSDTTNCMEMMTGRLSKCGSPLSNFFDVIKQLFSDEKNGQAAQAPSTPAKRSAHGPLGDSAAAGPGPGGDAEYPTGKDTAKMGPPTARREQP
# T3: PRAK(h) (human, UniProt Q8IW41 1-473, limits assumed)
# T3 sequence (looked up): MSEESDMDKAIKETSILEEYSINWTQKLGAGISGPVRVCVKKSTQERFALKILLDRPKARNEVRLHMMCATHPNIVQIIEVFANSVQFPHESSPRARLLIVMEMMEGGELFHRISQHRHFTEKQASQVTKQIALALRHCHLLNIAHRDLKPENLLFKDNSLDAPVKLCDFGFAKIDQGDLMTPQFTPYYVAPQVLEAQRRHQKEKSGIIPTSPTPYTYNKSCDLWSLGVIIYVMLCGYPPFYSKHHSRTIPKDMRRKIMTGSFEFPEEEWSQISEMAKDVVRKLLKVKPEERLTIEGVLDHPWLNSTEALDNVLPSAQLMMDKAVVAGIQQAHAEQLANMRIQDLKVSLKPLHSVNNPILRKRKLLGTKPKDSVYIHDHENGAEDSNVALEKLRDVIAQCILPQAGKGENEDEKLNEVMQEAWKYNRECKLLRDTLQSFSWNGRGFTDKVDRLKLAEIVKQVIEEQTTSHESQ
# T4: TAO1(h) (human, UniProt Q7L7X3 1-314, limits assumed)
# T4 sequence (looked up): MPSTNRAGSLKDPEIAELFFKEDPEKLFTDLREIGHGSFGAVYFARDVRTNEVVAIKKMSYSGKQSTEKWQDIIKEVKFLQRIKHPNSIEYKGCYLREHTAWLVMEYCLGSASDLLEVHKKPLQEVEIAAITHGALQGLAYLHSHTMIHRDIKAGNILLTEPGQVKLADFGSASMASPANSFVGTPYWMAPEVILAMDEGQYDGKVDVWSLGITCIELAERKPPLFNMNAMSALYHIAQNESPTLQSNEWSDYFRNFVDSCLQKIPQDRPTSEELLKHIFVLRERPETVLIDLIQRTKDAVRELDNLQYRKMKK
# T5: MKK7β(h) (human, UniProt O14733 1-419, limits assumed)
# T5 sequence (looked up): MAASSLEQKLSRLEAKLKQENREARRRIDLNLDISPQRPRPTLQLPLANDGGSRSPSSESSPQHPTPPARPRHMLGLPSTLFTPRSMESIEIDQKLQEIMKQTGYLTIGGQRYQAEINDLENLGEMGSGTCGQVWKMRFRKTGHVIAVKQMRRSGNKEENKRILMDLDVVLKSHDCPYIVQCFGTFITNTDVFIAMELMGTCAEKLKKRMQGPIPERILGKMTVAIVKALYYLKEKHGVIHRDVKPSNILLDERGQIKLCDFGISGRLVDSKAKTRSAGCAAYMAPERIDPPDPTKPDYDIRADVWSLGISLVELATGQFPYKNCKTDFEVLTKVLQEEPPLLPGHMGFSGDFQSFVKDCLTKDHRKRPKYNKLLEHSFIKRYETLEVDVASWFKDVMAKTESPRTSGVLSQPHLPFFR
# B1: MMI-0400 (peptide)
# peptide: KAFAKLAARLYRKALARQLGVAA
# B2: MMI-0300 (peptide)
# peptide: FAKLAARLYRKALARQLGVAA
# Tests used:
# Assay in all cases: cell-based or functional assay
# MKK6(h) = molecular target: T1, MKK6(h)
# cKit(D816H)(h) = cKit(D816H)(h) (human, UniProt P10721 544-976)
# cKit(D816H)(h), sequence (P10721 544-976 D816H): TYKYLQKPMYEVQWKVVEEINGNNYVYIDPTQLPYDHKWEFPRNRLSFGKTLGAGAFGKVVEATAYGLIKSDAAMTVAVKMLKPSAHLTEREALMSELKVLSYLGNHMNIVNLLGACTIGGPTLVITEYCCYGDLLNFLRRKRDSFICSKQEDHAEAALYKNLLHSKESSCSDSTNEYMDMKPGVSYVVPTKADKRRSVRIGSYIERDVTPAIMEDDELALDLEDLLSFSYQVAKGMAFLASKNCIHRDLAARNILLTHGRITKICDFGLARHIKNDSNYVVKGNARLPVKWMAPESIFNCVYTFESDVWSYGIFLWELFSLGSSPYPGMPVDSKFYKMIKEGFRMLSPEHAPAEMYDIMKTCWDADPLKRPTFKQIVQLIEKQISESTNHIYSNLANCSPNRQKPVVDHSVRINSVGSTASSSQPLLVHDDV
# 6SK3β(h) = 6SK3β(h) (human, UniProt P49841 1-420)
# 6SK3β(h), sequence (P49841 whole entry): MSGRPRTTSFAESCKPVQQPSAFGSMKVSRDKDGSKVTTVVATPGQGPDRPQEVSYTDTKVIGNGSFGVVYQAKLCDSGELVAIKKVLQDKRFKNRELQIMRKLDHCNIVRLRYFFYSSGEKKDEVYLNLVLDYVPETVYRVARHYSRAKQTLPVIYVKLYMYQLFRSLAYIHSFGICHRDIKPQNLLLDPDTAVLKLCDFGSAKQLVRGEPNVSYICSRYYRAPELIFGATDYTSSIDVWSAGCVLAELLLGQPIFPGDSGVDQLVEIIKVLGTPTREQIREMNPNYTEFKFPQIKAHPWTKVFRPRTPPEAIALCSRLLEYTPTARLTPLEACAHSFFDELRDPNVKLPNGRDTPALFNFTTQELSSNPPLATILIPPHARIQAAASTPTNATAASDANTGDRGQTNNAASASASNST
# BrSK2(h) = molecular target: T2, BrSK2(h)
# PRAK(h) = molecular target: T3, PRAK(h)
# TAO1(h) = molecular target: T4, TAO1(h)
# ASK1(h) = ASK1(h) (human, UniProt Q99683 649-946, limits assumed)
# ASK1(h), sequence (Q99683 649-946 limits assumed): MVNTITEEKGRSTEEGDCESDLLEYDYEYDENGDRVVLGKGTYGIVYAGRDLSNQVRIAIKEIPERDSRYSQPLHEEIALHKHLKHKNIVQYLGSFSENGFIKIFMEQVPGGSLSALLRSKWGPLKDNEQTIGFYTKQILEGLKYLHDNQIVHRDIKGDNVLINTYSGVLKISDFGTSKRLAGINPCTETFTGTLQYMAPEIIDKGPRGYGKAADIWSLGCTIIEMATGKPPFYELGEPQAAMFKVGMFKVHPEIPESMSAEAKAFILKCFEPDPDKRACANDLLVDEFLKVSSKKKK
# ROCK-I(h) = ROCK-I(h) (human, UniProt Q13464 17-535, limits assumed)
# ROCK-I(h), sequence (Q13464 17-535 limits assumed): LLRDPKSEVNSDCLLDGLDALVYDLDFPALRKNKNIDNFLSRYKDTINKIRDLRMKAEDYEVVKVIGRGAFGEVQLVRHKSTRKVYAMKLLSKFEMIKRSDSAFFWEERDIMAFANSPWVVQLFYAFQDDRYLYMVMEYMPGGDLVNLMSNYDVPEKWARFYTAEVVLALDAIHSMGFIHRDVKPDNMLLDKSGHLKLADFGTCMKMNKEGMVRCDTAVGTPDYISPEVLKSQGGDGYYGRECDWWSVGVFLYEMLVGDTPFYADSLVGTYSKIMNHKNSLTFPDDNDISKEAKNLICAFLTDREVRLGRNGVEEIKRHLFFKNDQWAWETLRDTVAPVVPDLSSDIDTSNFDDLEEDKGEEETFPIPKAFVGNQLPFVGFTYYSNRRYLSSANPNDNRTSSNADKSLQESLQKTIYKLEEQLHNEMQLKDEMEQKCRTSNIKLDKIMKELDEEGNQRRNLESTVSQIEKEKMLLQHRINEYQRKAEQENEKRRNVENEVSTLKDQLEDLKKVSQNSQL
# Tie2(h) = Tie2(h) (human, UniProt Q02763 771-1124, limits assumed)
# Tie2(h), sequence (Q02763 771-1124 limits assumed): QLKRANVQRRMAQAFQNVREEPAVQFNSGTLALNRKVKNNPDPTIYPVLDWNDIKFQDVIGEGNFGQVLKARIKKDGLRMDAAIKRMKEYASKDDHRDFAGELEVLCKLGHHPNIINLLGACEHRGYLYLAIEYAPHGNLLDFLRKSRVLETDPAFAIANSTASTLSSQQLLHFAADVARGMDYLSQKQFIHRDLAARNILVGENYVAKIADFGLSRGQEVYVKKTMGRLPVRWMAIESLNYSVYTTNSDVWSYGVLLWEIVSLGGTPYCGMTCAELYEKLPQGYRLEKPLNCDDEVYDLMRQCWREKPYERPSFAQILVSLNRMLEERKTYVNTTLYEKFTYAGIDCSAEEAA
# MKK7β(h) = molecular target: T5, MKK7β(h)
Binder,"% activity, 100 µM (MKK6(h)) [%]","% activity, 100 µM (cKit(D816H)(h)) [%]","% activity, 100 µM (6SK3β(h)) [%]","% activity, 100 µM (BrSK2(h)) [%]","% activity, 100 µM (PRAK(h)) [%]","% activity, 100 µM (TAO1(h)) [%]","% activity, 100 µM (ASK1(h)) [%]","% activity, 100 µM (ROCK-I(h)) [%]","% activity, 100 µM (Tie2(h)) [%]","% activity, 100 µM (MKK7β(h)) [%]"
B1,44,143,202,86,118,73,69,73,21,94
B2,48,126,205,83,128,82,80,79,26,100
